Reference: patent US20190353642A1 (WUHAN INSTITUTE OF VIROLOGY CHINESE ACADEMY OF SCIENCES, published 2019)

B1: flag-tagged truncated CD2AP 1-268 aa (other)
chain: MVDYIVEYDYDAVHDDELTIRVGEIIRNVKKLQEEGWLEGELNGRRGMFPDNFVKEIKRETEFKDDSLPIKRERHGNVASLVQRISTYGLPAGGIQPHPQTKNIKKKTKKRQCKVLFEYIPQNEDELELKVGDIIDINEEVEEGWWSGTLNNKLGLFPSNFVKELEVTDDGETHEAQDDSETVLAGPTSPIPSLGNVSETASGSVTQPKKIRGIGFGDIFKEGSVKLRTRTSSSETEEKKPEKPLILQSLGPKTQSVEITKTDTEGKI
notes: not shown: Flag tag
B2: flag-tagged truncated CD2AP 1-107 aa (other)
chain: MVDYIVEYDYDAVHDDELTIRVGEIIRNVKKLQEEGWLEGELNGRRGMFPDNFVKEIKRETEFKDDSLPIKRERHGNVASLVQRISTYGLPAGGIQPHPQTKNIKKK
notes: Contains the first SH3 domain; not shown: Flag tag
B3: flag-tagged truncated CD2AP 1-330 aa (other)
chain: MVDYIVEYDYDAVHDDELTIRVGEIIRNVKKLQEEGWLEGELNGRRGMFPDNFVKEIKRETEFKDDSLPIKRERHGNVASLVQRISTYGLPAGGIQPHPQTKNIKKKTKKRQCKVLFEYIPQNEDELELKVGDIIDINEEVEEGWWSGTLNNKLGLFPSNFVKELEVTDDGETHEAQDDSETVLAGPTSPIPSLGNVSETASGSVTQPKKIRGIGFGDIFKEGSVKLRTRTSSSETEEKKPEKPLILQSLGPKTQSVEITKTDTEGKIKAKEYCRTLFAYEGTNEDELTFKEGEIIHLISKETGEAGWWRGELNGKEGVFPDNFAVQINE
notes: Contains all three SH3 domains; not shown: Flag tag
B4: Flag-tagged NS5A derived from HCV genotype 2a strain JFH1 (pRK-Flag-NS5A), full length (other)
chain: SGSWLRDVWDWVCTILTDFKNWLTSKLFPKLPGLPFISCQKGYKGVWAGTGIMTTRCPCGANISGNVRLGSMRITGPKTCMNTWQGTFPINCYTEGQCAPKPPTNYKTAIWRVAASEYAEVTQHGSYSYVTGLTTDNLKIPCQLPSPEFFSWVDGVQIHRFAPTPKPFFRDEVSFCVGLNSYAVGSQLPCEPEPDADVLRSMLTDPPHITAETAARRLARGSPPSEASSSVSQLSAPSLRATCTTHSNTYDVDMVDANLLMEGGVAQTEPESRVPVLDFLEPMAEEESDLEPSIPSECMLPRSGFPRALPAWARPDYNPPLVESWRRPDYQPPTVAGCALPPPKKAPTPPPRRRRTVGLSESTISEALQQLAIKTFGQPPSSGDAGSSTGAGAAESGGPTSPGEPAPSETGSASSMPPLEGEPGDPDLESDQVELQPPPQGGGVAPGSGSGSWSTCSEEDDTTVCC
notes: not shown: Flag tag from vector pRK-7 Flag
B5: NS5A of HCV JFH1 in infected Huh7.5.1 cells (other)
chain: B4 chain
notes: also called endogenous NS5A
B6: HA-tagged full length NS5A (other)
chain: B4 chain
notes: also called HA-tagged NS5A; not shown: HA tag from vector pRK-7 HA

How the values were obtained:
[1] = target: B6; assay: co-IP with anti-flag antibody, HEK 293T cells, blot with anti-HA
[2] = target: T1, HA-tagged CD2AP (pRK-HA-CD2AP), human, full length (human, UniProt Q9Y5K6 1-639); assay: co-IP with anti-flag antibody from HEK 293T cells over-expressing both, blot with anti-HA
T1 construct: Over-expressed in HEK 293T cells and tested in cell lysate by co-IP; also called CD2 associated protein; not shown: HA tag from vector pRK-7 HA

[3] = target: T2, CD2AP, endogenous, in Huh7.5.1 cells (human, UniProt Q9Y5K6 1-639); assay: endogenous co-IP, both directions, Huh7.5.1 cells infected with HCV JFH1
T2 construct: Endogenous protein of human hepatoma Huh7.5.1 cells, in cell lysate

[4] = target: T3, flag-tagged truncated CD2AP 60-639 aa (human, UniProt Q9Y5K6 60-639); assay: co-IP with anti-flag antibody, HEK 293T cells, blot with anti-HA
T3 construct: No first SH3 domain, all other CD2AP domains kept; also called CD2AP lacking the first SH3 domain; not shown: Flag tag

[5] = target: T4, flag-tagged CD2AP 1-639 aa (full length) (human, UniProt Q9Y5K6 1-639); assay: as above
T4 construct: also called Full length CD2AP; not shown: Flag tag

T3 sequence (Q9Y5K6 60-639): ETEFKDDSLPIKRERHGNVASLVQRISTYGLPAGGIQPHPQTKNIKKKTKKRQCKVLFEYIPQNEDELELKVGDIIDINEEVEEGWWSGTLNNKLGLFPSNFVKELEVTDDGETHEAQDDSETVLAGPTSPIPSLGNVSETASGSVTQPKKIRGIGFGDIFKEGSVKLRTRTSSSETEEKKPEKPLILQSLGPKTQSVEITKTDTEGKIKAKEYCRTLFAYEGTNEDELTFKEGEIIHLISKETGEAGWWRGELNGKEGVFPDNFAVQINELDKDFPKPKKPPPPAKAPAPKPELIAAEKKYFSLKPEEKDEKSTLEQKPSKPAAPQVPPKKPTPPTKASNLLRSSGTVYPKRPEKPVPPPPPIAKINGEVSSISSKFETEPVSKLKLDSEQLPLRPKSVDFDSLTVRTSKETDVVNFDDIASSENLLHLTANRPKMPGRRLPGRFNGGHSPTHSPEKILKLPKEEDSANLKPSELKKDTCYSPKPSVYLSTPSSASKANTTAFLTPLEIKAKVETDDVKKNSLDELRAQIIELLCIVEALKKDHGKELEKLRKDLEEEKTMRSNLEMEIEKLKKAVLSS

B1: binds [1].

B2: binds [1].

B3: binds [1].

B4: binds [2].

B5: binds [3].

B6: binds [4]; binds [5].
